Measured values published in patent US20100093076A1, “SOLUBLE IL-27 RECEPTOR” (priority 2006, published 2010).

How the values were obtained:
Format in all cases: cell-based
muIL-27 [1] = target: T1, muIL-27 (Mus musculus, UniProt O35228+Q8K3I6); assay: Phospho-STAT3 (BIO-PLEX) neutralization of IL-27 by soluble receptors, total human PBMCs; conditions: ligand muIL-27 at EC90 (2 nM)
T1 construct: purchased R&D Systems
T1 sequence (Q8K3I6 29-234): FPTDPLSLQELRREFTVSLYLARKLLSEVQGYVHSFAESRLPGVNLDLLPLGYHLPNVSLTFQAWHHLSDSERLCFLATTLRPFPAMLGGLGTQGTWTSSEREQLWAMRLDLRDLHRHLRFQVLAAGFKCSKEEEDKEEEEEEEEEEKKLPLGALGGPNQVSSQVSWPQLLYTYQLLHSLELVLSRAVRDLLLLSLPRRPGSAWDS
T1 sequence (O35228 19-228): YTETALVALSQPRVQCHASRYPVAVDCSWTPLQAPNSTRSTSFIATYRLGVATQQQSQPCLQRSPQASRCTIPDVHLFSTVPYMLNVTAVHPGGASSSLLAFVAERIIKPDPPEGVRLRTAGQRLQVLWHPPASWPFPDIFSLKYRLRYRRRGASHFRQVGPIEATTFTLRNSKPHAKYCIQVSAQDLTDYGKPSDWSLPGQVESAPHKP
Text: (§1) Whole mouse spleens were harvested from C57 B1/6 mice and washed two times with 1×PBS before being plated out at 2×10^5 cells/well in assay media (RPMI 1640 plus 10% fetal bovine serum) in 96-well, round-bottom tissue culture plates. Total human PBMC (peripheral blood mononuclear cells) were thawed from a frozen vial collected from a leukapherisis donation and washed two times with 1×PBS before being plated out at 10^6 cells/well in assay media in 96-well, round-bottom tissue culture plates. […] Following pre-incubation, treatments were added to the plates containing the cells and incubated together at 37° C. for 15 minutes.
(§2) Following incubation, cells were washed with ice-cold wash buffer (BIO-PLEX Cell Lysis Kit, BIO-RAD Laboratories, Hercules, Calif.) and put on ice to stop the reaction according to manufacturer's instructions. […]
(§3) Capture beads (BIO-PLEX Phospho-Stat3 Assay, BIO-RAD Laboratories) were combined with 50 μL of 1:1 diluted lysates and added to a 96-well filter plate according to manufacture's instructions (BIO-PLEX Phosphoprotein Detection Kit, BIO-RAD Laboratories). […] After the final wash, beads were resuspended in 125 μL/well of bead suspension buffer, shaken for 30 seconds, and read on an array reader (BIO-PLEX, BIO-RAD Laboratories) according to the manufacture's instructions. Data were analyzed using analytical software (BIO-PLEX MANAGER 3.0, BIO-RAD Laboratories). […]

huIL-27 [2] = target: T2, huIL-27 (Homo sapiens, UniProt Q14213+Q8NEV9); assay: as above; conditions: ligand huIL-27 at EC90 (2 nM)
T2 construct: purchased R&D Systems
T2 sequence (Q8NEV9 29-243): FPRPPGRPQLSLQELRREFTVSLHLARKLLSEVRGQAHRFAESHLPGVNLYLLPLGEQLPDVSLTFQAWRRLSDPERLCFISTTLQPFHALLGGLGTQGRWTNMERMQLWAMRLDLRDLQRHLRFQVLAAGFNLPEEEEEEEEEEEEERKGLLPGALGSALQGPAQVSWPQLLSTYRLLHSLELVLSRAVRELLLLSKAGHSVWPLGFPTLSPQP
T2 sequence (Q14213 21-229): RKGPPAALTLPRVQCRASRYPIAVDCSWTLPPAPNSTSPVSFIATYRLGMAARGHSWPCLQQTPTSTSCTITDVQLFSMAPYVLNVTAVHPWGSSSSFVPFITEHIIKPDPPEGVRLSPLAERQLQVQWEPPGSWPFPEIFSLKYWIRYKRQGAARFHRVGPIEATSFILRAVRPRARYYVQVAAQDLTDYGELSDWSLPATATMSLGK
Text: as §1, §2, §3

muIL-27 [3] = target: T1, muIL-27; assay: Phospho-STAT3 (BIO-PLEX) neutralization of IL-27 by soluble receptors, mouse spleens; conditions: ligand muIL-27 at EC90 (0.2 nM)
Text: as §1, §2, §3

huIL-27 [4] = target: T2, huIL-27; assay: as above; conditions: ligand huIL-27 at EC90 (2 nM)
Text: as §1, §2, §3

human IL-27RA-Fc5: Extracellular domain of human IL27RA (amino acids 1 to 512 of SEQ ID NO:3) fused to Fc5, effector minus human gamma1 Fc; SEQ ID NO:16
IC50 (muIL-27 [1]): 2.97 nM
IC50 (huIL-27 [2]): 0.95 nM
IC50 (muIL-27 [3]): 0.14 nM
IC50 (huIL-27 [4]): 0.32 nM
